The assay has as its target STAT3 (protein used in the ELISA) (UniProt P42227). Briefly: ELISA; documented protocol (ref. 44); which protein was coated and the conditions are not told. Background: An ELISA detects its analyte on a solid surface through an enzyme-linked reagent.

In the case of “Becn1 (protein used in the ELISA) (from UniProt O88597 1-448) (natural protein)”, the Kd (usually the free concentration of one partner at which half of the binding sites on the other are occupied at equilibrium, for simple one-to-one binding) came out at 120 nM.

The record behind these values is PMC11785930.
